Columns and labels:
DNMT1 [1] = molecular target: T1, DNMT1 (human, UniProt P26358 1-1616); assay: EMSA; 100 mM KCl; undetectable; 50 mM Tris-HCl pH 7.5, 100 mM KCl (or LiCl), 2.5 mM MgCl2, 0.1 mM ZnCl2, 2 mM BME, 0.05% NP40, 5% glycerol, 0.1 mg/mL BSA, 0.1 mg/mL yeast tRNA; 30 C 1 h; 1% agarose gel in 1x TBE at 4 C; conditions: protein: recombinant; tags: MBP tag cleaved with PreScission protease; label: 5' 32P; unstructured
DNMT1 [2] = molecular target: T1, DNMT1; assay: EMSA; 100 mM KCl; 50 mM Tris-HCl pH 7.5, 100 mM KCl (or LiCl), 2.5 mM MgCl2, 0.1 mM ZnCl2, 2 mM BME, 0.05% NP40, 5% glycerol, 0.1 mg/mL BSA, 0.1 mg/mL yeast tRNA; 30 C 1 h; 1% agarose gel in 1x TBE at 4 C; conditions: protein: recombinant, tags: MBP tag cleaved with PreScission protease; for Kd: label: 5' 32P
DNMT1 [3] = molecular target: T1, DNMT1; assay: as above; conditions: protein: recombinant; tags: MBP tag cleaved with PreScission protease; label: 5' 32P; one pUG-fold in K+
DNMT1 [4] = molecular target: T1, DNMT1; assay: as above; conditions: protein: recombinant; tags: MBP tag cleaved with PreScission protease; label: 5' 32P; canonical G4

T1 sequence (P26358 whole entry): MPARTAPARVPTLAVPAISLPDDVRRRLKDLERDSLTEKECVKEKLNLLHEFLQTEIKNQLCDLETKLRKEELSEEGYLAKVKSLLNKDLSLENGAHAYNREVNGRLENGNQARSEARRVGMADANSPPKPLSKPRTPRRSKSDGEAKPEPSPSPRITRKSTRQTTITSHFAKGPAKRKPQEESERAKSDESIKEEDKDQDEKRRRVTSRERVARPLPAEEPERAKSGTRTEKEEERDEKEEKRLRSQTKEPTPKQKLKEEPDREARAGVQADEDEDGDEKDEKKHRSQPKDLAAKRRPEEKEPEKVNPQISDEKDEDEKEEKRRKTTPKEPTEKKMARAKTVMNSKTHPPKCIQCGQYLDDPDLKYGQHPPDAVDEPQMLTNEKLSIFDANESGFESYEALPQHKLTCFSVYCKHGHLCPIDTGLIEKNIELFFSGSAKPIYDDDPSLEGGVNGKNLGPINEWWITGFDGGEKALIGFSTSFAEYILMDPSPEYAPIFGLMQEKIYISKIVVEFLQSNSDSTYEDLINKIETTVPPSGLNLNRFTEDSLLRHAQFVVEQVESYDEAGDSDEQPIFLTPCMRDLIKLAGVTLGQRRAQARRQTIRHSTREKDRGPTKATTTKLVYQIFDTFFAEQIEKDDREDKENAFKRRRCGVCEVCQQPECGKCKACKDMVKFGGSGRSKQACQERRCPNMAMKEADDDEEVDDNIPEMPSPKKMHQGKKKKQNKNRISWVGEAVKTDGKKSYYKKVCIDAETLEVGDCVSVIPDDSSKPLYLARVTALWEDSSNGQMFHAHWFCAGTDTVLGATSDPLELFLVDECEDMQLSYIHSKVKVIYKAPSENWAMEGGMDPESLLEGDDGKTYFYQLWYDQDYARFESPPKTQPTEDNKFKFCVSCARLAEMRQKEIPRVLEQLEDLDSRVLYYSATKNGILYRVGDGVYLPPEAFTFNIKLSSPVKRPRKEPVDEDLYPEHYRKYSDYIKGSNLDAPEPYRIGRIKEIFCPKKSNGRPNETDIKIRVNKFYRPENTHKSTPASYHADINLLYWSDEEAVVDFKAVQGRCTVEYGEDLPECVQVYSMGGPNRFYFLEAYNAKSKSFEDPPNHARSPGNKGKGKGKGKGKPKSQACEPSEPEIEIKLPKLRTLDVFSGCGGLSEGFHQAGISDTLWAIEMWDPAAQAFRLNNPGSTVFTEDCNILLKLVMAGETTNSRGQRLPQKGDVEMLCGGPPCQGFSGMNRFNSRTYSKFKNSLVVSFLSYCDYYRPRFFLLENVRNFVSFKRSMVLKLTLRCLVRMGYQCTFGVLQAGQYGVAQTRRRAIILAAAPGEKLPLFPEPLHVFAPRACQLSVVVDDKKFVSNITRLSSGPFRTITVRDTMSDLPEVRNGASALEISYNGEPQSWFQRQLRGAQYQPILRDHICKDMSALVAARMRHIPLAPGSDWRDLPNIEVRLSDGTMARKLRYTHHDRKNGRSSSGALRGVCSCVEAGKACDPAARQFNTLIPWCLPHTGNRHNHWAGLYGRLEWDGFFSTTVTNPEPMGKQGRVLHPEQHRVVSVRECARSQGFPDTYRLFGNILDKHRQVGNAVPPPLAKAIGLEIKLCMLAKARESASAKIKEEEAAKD

AAAAAAAAAAAAAAAAAAAAAAAAAAAAAAAAAAAAAAAA (ssRNA) [(A)40]
binding result (DNMT1 [1]): no binding

GUGUGUGUGUGUGUGUGUGUGUGUGUGUGUGUGUGUGUGU (structured_RNA) [(GU)20]
Kd (DNMT1 [2]; pUG-fold (noncanonical G4) in K+): 69 nM

B1: Hemimethylated DNA substrate (dsDNA)
DNA 1: TACGTATCCGTATCCGGTTACGTATCCGAATCCGTACCGT
DNA 2: ACGGTACGGATTCGGATACGTAACCGGATACGGATACGTA
modifications: 5mC at strand 1 positions 3,9,15,21,27,33,38
binding result (DNMT1 [2]; label: 32P end label, blunt): binds

GUGUGUGUGUGUGUGUGUGUGUGU (structured_RNA) [(GU)12]
binding signal (DNMT1 [3]): 5 fold weaker than (GU)20

B2: (GU)30 (structured_RNA)
RNA: GUGUGUGUGUGUGUGUGUGUGUGUGUGUGUGUGUGUGUGUGUGUGUGUGUGUGUGUGUGU
Kd (DNMT1 [2]; pUG-fold, possibly two): 13 nM

GGAAGGAAGGAAGGAAGGAAGGAAGGAAGGAAGGAAGGAA (structured_RNA) [(GGAA)10]
binding signal (DNMT1 [4]): 3 fold weaker than (GU)20

Reference: PMC9945446, “DNMT1 inhibition by pUG-fold quadruplex RNA”
